Assay results taken from publication PMC3323579.

How the values were obtained:
[1] = target: yeast 26S proteasome (RPN11-3XFLAG) (yeast) (UniProt P43588); assay: ELISA; 26S proteasome (1 µg/ml, 0.37 nM) captured on plates coated with anti-FLAG antibody; Mb 580 nM to 0.006 nM in TBST with 1 mM ATP, 5 mM MgCl2, 0.1% BSA; bound Mb detected with anti-Mb antibody; one site specific binding fit
[2] = target: yeast 26S proteasome (RPN11-3XFLAG) (yeast) (UniProt P43588); assay: ELISA; competition: 8 nM apoMb on immobilised 26S proteasome with peptides 100 µM to 0.01 µM; 100 nM MG132 in all incubations; Ki from a one site binding fit
[3] = target: yeast 26S proteasome (RPN11-3XFLAG) (yeast) (UniProt P43588)

**Q.** With “apomyoglobin L104C (G-helix mutant) (natural protein)” as the substance, how does the Kd [1] read?
**A.** Its Kd is 0.6 nM.

**Q.** With “apomyoglobin V10C (A-helix mutant) (natural protein)” as the substance, how does the Kd [1] read?
**A.** The Kd was 1.25 nM.

**Q.** For “apomyoglobin F-helix mutant G80A/P88A/S92A/H97N (natural protein)”, which Kd [1] is on record?
**A.** The Kd was 0.57 nM.

**Q.** How did the Kd [1] turn out when “apomyoglobin T39C (C-helix mutant) (natural protein)” was run?
**A.** Its Kd is 19.5 nM.

**Q.** For myoglobin peptide E7 (69-83), which percent inhibition of apoMb binding at 100 µM peptide [2] is on record?
**A.** The percent inhibition of apoMb binding at 100 µM peptide was 34%.

**Q.** How did the percent inhibition of apoMb binding at 100 µM peptide [2] turn out when myoglobin peptide F7 (90-104) was run?
**A.** Its percent inhibition of apoMb binding at 100 µM peptide is 65%.

**Q.** For “apomyoglobin M131C (H-helix mutant) (natural protein)”, which Kd [1] is on record?
**A.** Its Kd is 45 nM.

**Q.** “apomyoglobin L115C (G-helix mutant) (natural protein)” was tested. Which Kd [1] did it give?
**A.** The Kd was 0.63 nM.

**Q.** For “apomyoglobin (sperm whale myoglobin, heme removed), wild type (from UniProt P02185 1-154) (natural protein)”, which Kd [1] is on record?
**A.** Its Kd is 3.5 nM.

**Q.** What about the stimulation of the ATPase activity of the 26S proteasome (580 nM substrate, 37°C, 15 min) [3] of the same substance?
**A.** The stimulation of the ATPase activity of the 26S proteasome (580 nM substrate, 37°C, 15 min) was 2 fold.
